From publication PMC9142583, “Structural basis for broad anti-phage immunity by DISARM” (Nature Communications, 2022) come the findings set out here.

Data set [1] deals with T1, DrmA(∆loop) / DrmA(∆TL);DrmB (Serratia sp. SCBI;Serratia sp. SCBI, UniProt A0A979HMQ0;A0A979HMQ1 1-1325;1-619, del181-233|). Description: EMSA; 1 µM protein; EMSA: 150 mM NaCl, 25 mM HEPES pH 7.4, 30 min room temperature, 5 nM DNA; 1.5% agarose, 1x TBE. Conditions: protein: recombinant;recombinant, tags: none stated;tagged (Ni-NTA purification), copies: 1;1, label: 5'-Cy5 on strand 1. In general terms: Mobility shift assays separate free from complexed probe on a gel.

In data set [2] the target is T2, DrmA;DrmB (Serratia sp. SCBI;Serratia sp. SCBI, UniProt A0A979HMQ0;A0A979HMQ1 1-1325;1-619, |). The data set is described as above. Conditions: protein: recombinant;recombinant, tags: none stated;tagged (Ni-NTA purification), copies: 1;1, label: 5'-Cy5 on strand 1.
The target in data set [3] is T2, DrmA;DrmB. The data set can be described thus: EMSA; binding at 1 µM protein or higher; smeared (dissociation); EMSA: 150 mM NaCl, 25 mM HEPES pH 7.4, 30 min room temperature, 5 nM DNA; 1.5% agarose, 1x TBE. The conditions noted are these: protein: recombinant;recombinant; tags: none stated;tagged (Ni-NTA purification); copies: 1;1; label: 5'-Cy5; single strand.
Data set [4] has as its target T1, DrmA(∆loop) / DrmA(∆TL);DrmB. Description: EMSA; no dissociation smear; second super-shift at 1 µM or higher; EMSA: 150 mM NaCl, 25 mM HEPES pH 7.4, 30 min room temperature, 5 nM DNA; 1.5% agarose, 1x TBE. The conditions noted are these: protein: recombinant;recombinant; tags: none stated;tagged (Ni-NTA purification); copies: 1;1; label: 5'-Cy5; single strand.
Data set [5] has as its target T2, DrmA;DrmB. Description: cryo-EM; 1 mM ADP; EMSA: 150 mM NaCl, 25 mM HEPES pH 7.4, 30 min room temperature, 5 nM DNA; 1.5% agarose, 1x TBE. Conditions: protein: recombinant;recombinant; tags: none stated;tagged (Ni-NTA purification); copies: 1;1; label: none; hairpin; 19-bp stem, 5-nt loop, 5' tail 7 nt, 3' tail 21 nt (Methods: 6 and 20).

B1: 3'ovh DNA (75-nt + 5' block) (mixed)
DNA 1: ATTTTGACAGCCCACATGGCTTGATGAGTGGCGCACTCGCCAGCCTGAGCATGGCGAAAACTCCTCCAGTCTGCT
DNA 2: GCCATGTGGGCTGTCAAAAT
On to B1, for which the values for the binding result (in data set [1] (3' overhang 55 nt); in the data set with DrmA;DrmB [2] (3' overhang 55 nt)) were “binds” and “no binding”, respectively.

B2: 75-bp dsDNA (dsDNA)
DNA 1: B1 DNA 1
DNA 2: AGCAGACTGGAGGAGTTTTCGCCATGCTCAGGCTGGCGAGTGCGCCACTCATCAAGCCATGTGGGCTGTCAAAAT
Regarding B2, the binding result in data set [1] (blunt) was “binds”; with DrmA;DrmB [2] (blunt) it was “no binding”.

B3: 75-nt Cy5 ssDNA (ssDNA)
DNA: B1 DNA 1
With B3, the binding result (in the data set with DrmA;DrmB [3]; in data set [4]) was “binds” throughout.

B4: 5'ovh DNA (75-nt + 3' block) (mixed)
DNA 1: B1 DNA 1
DNA 2: AGCAGACTGGAGGAGTTTTC
Regarding B4, the binding result (in data set [1] (5' overhang 55 nt); with DrmA;DrmB [2] (5' overhang 55 nt)) was “binds” each time.

B5: DNA stem loop (forked hairpin) (structured_DNA)
DNA: TTTTTTTCATCGATGAGCACTGCTATTCCCTAGCAGTGCTCATCGATGATTTTCATCGATGAGCGGTTTT
modifications: none (unmethylated)
In the case of B5, the binding result with DrmA;DrmB [5] is “binds”.
